Reference: article PMC4335501

Key:
[1] = biological target: 52SFK N318A (human adenovirus type 52 (HAdV-52)); test: gas-phase electrophoretic mobility molecular analysis (GEMMA); 20 mM ammonium acetate pH 7.8, 0.005% Tween 20; 0.05 mg/ml (52SFK wt, mutants 1-3) or 0.06 mg/ml (mutants 4-6)
[2] = biological target: 52SFK R316E/N318A (human adenovirus type 52 (HAdV-52)); test: as above
[3] = biological target: 52SFK N308E (human adenovirus type 52 (HAdV-52)); test: as above
[4] = biological target: HAdV-52 short fiber knob (human adenovirus type 52 (HAdV-52)); test: crystal structure; 52SFK crystals soaked with 20 mM 2-O-methyl sialic acid; 1.65 Å; threefold NCS
[5] = biological target: HAdV-52 short fiber knob (human adenovirus type 52 (HAdV-52)); test: gas-phase electrophoretic mobility molecular analysis (GEMMA); 20 mM ammonium acetate pH 7.8, 0.005% Tween 20; 0.05 mg/ml (52SFK wt, mutants 1-3) or 0.06 mg/ml (mutants 4-6)
[6] = biological target: 52SFK R316A (human adenovirus type 52 (HAdV-52)); test: as above
[7] = biological target: Recombinant human CAR (CXADR Fc chimera; full length extracellular D1D2 domain) (human) (UniProt P78310); test: SPR; CAR-D1D2 Fc chimera or CAR-D1 amine-coupled to CM5 (900-1100 RU); 52LFK or 52SFK as analytes, two-fold series 8 nM to 2 μM; 25°C; HBS-EP+ (10 mM HEPES, 150 mM NaCl, 3 mM EDTA, 0.005% P20, pH 7.4); Biacore T100
[8] = biological target: soluble CAR-D1; test: as above
[9] = biological target: HAdV-5 virion (Ad75; source ATCC); test: radioligand binding; competition: soluble CAR-D1 preincubated with 35S-labelled virions for 1 h on ice before the virions were added to A549 cells; read-out is the cell-bound radioactivity; concentration of CAR-D1 not stated
[10] = biological target: HAdV-52 virion (strain TB3-2243) (human adenovirus type 52 (HAdV-52)); test: as above
[11] = biological target: 52SFK R316A/N318A (human adenovirus type 52 (HAdV-52)); test: gas-phase electrophoretic mobility molecular analysis (GEMMA); 20 mM ammonium acetate pH 7.8, 0.005% Tween 20; 0.05 mg/ml (52SFK wt, mutants 1-3) or 0.06 mg/ml (mutants 4-6)
[12] = biological target: 52SFK R316E (human adenovirus type 52 (HAdV-52)); test: as above

Sequence of Recombinant human CAR (CXADR Fc chimera; full length extracellular D1D2 domain) (human) (P78310 20-237, change not shown): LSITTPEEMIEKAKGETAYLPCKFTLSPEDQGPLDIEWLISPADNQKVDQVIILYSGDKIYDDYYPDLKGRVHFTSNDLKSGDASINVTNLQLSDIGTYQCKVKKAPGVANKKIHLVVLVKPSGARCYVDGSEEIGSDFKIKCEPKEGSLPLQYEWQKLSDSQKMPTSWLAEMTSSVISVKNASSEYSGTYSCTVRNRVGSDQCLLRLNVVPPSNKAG

For 52SFK N318A (domain or fragment), the stoichiometry N [1] was 3.
Substance 52SFK R316E/N318A (domain or fragment) has a stoichiometry N [2] of 3.
In the case of 52SFK N308E (domain or fragment), the stoichiometry N [3] is reported as 3.
Substance “HAdV-52 short fiber knob (domain or fragment)” has a stoichiometry N [4] of 3 and a stoichiometry N [5] of 3.
52SFK R316A (domain or fragment) gave a stoichiometry N [6] of 3.
With “HAdV-52 long fiber knob (domain or fragment)” the Kd [7] was 5 nM and the Kd [8] was 2.6 nM.
In the case of soluble CAR-D1 (domain or fragment), the percent reduction of virion binding to A549 cells [9] is reported as 50% and the percent reduction of virion binding to A549 cells [10] is reported as 20%.
In the case of 52SFK R316A/N318A (domain or fragment), the stoichiometry N [11] is reported as 3.
52SFK R316E (domain or fragment) was tested, and the stoichiometry N [12] was 3.
